Laboratory results published in patent US20240409659A1.

Key:
Human FcRn (human) = Human FcRn (human) (UniProt P55899)
Human FcγRI (human) = Human FcγRI (human) (UniProt P12314)
Human FcγRIIA (human) = Human FcγRIIA (human) (UniProt P12318)
Human FcγRIIB (human) = Human FcγRIIB (human) (UniProt P31994)
[1] = biological target: Human FcγRIIIA-F158 (human) (UniProt P08637)
Human FcγRIIIB (human) = Human FcγRIIIB (human) (UniProt O75015)

kon (Human FcRn (human)): 1.98e+06 M⁻¹ s⁻¹
kon (Human FcγRI (human)): 289000 M⁻¹ s⁻¹
kon (Human FcγRIIA (human)): 300000 M⁻¹ s⁻¹
kon (Human FcγRIIB (human)): 124000 M⁻¹ s⁻¹
kon [1]: 880000 M⁻¹ s⁻¹
kon (Human FcγRIIIB (human)): 128000 M⁻¹ s⁻¹
Substance: control IgG (7101+7103) (antibody)
